This note sets out measurements from PMC9352680, “A comprehensive thermodynamic model for RNA binding by the Saccharomyces cerevisiae Pumilio protein PUF4”.

To fix the notation:
T1: PUF4 RNA-binding domain (Saccharomyces cerevisiae, UniProt P25339 537-888)
T1 sequence: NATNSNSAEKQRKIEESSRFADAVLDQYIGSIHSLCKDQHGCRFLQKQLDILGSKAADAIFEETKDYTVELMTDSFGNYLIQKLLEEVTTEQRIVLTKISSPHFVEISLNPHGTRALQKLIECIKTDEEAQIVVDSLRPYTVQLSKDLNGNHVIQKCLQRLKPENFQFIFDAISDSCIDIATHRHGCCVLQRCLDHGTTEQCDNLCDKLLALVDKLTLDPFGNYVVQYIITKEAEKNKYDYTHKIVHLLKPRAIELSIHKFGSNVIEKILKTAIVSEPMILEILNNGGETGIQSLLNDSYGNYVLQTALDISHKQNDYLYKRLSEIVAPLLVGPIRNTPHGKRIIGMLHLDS

The target in the data set is T1, PUF4 RNA-binding domain. Nature of the data set: Mg; RNA-MaP; 20 mM Na-HEPES pH 7.4, 30 mM KOAc, 0.75 mM MgCl2, 0.1% Tween-20, 5% glycerol, 0.1 mg/mL BSA, 2 mM DTT; 25 C; 0.0125-409.6 nM protein. As to conditions: tags: N-His6-TEV cleaved; C-SNAP kept, Cy3B-labelled; label: tethered on chip by stalled RNA polymerase.
For orientation: Kd means the free concentration of one partner at which half of the binding sites on the other are occupied at equilibrium, for simple one-to-one binding. In turn, UCUCUUCGUGUAUUAUUAAUUCUCUU (ssRNA) [Id_ii_S1_P5E.2_K5.1_C5.2_[T-1G]_H5.1_A5.1_F5.1_T5.2_[T11A]_[A12T]] gave a Kd of 10.1 nM.
UCUCUUUAUGUAUUAUUAAUUCUCUU (ssRNA) [Id_ii_S1_P5E.2_K5.1_C5.2_[C-2T]_[T-1A]_H5.1_A5.1_F5.1_T5.2_[T11A]_[A12T]] gave a Kd of 10.6 nM.
In turn, UCUCUUAUUGUAUUAUUAUCUCUCUU (ssRNA) [Id_ii_S1_P5E.2_K5.1_C5.2_[C-2A]_H5.1_A5.1_F5.1_T5.2_[A12C]] returned a Kd of 6.61 nM.
Take UCUCUUUUUGUAUUAUUAACUCUCUU (ssRNA) [Id_ii_S1_P5E.2_K5.1_C5.2_[C-2T]_H5.1_A5.1_F5.1_T5.2_[T11A]_[A12C]]: the Kd came to 8.08 nM.
Molecule UCUCUUUUUGUAUUAUUAUUUCUCUU (ssRNA) [Id_ii_S1_P5E.2_K5.1_C5.2_[C-2T]_H5.1_A5.1_F5.1_T5.2_[A12T]] came in with a Kd of 10.2 nM.
On to UCUCUUAUUGUAUUAUUAGCUCUCUU (ssRNA) [Id_ii_S1_P5E.2_K5.1_C5.2_[C-2A]_H5.1_A5.1_F5.1_T5.2_[T11G]_[A12C]], for which the affinity, expressed as Kd, was 4.53 nM.
The value for UCUCUUUUUGUAUUAUUAGUUCUCUU (ssRNA) [Id_ii_S1_P5E.2_K5.1_C5.2_[C-2T]_H5.1_A5.1_F5.1_T5.2_[T11G]_[A12T]] was 3.49 nM; that for UCUCUUUUUGUAUUAUUAUGUCUCUU (ssRNA) [Id_ii_S1_P5E.2_K5.1_C5.2_[C-2T]_H5.1_A5.1_F5.1_T5.2_[A12G]] was 7.22 nM.
Consider UCUCUUCGUGUAUUAUUAACUCUCUU (ssRNA) [Id_ii_S1_P5E.2_K5.1_C5.2_[T-1G]_H5.1_A5.1_F5.1_T5.2_[T11A]_[A12C]], for which the dissociation constant Kd was 12.5 nM.
Consider UCUCUUACUGUAUUAUUAUGUCUCUU (ssRNA) [Id_ii_S1_P5E.2_K5.1_C5.2_[C-2A]_[T-1C]_H5.1_A5.1_F5.1_T5.2_[A12G]], for which binding was put at a Kd of 8.64 nM.
Turning to UCUCUUAUUGUAUUAUUAUUUCUCUU (ssRNA) [Id_ii_S1_P5E.2_K5.1_C5.2_[C-2A]_H5.1_A5.1_F5.1_T5.2_[A12T]], the Kd is 5.93 nM. This Kd and that of the molecule before are within 1.5-fold of each other.
UCUCUUUAUGUAUUAUUAUCUCUCUU (ssRNA) [Id_ii_S1_P5E.2_K5.1_C5.2_[C-2T]_[T-1A]_H5.1_A5.1_F5.1_T5.2_[A12C]]: the Kd amounted to 8.06 nM.
Then UCUCUUUAUGUAUUAUUAGUUCUCUU (ssRNA) [Id_ii_S1_P5E.2_K5.1_C5.2_[C-2T]_[T-1A]_H5.1_A5.1_F5.1_T5.2_[T11G]_[A12T]], with 4.38 nM; and UCUCUUACUGUAUUAUUAAAUCUCUU (ssRNA) [Id_ii_S1_P5E.2_K5.1_C5.2_[C-2A]_[T-1C]_H5.1_A5.1_F5.1_T5.2_[T11A]], with 23.8 nM.
Molecule UCUCUUUCUGUAUUAUUAUCUCUCUU (ssRNA) [Id_ii_S1_P5E.2_K5.1_C5.2_[C-2T]_[T-1C]_H5.1_A5.1_F5.1_T5.2_[A12C]] yielded a Kd of 4.88 nM. This Kd lies about 4.9-fold lower than the previous one.
Molecule UCUCUUUGUAAAGUAUCUCUU (ssRNA) [Ic_S1_P4E.1_K4.1_C4.1_H4.1_A4.1_[T5A]_[T7G]_F4.1_T4.1] displayed a Kd of 7.21 nM.
Then UCUCUUUGUACAAUAUCUCUU (ssRNA) [Ib_S1_P4E.1_K4.1_C4.1_H4.1_A4.1_[T5C]_[T7A]_F4.1_T4.1], with 1.29 nM; and UCUCUUUCUGUAUUAUUAAAUCUCUU (ssRNA) [Id_ii_S1_P5E.2_K5.1_C5.2_[C-2T]_[T-1C]_H5.1_A5.1_F5.1_T5.2_[T11A]], with 8.35 nM; and UCUCUUUCUGUAUUAUUAAGUCUCUU (ssRNA) [Id_ii_S1_P5E.2_K5.1_C5.2_[C-2T]_[T-1C]_H5.1_A5.1_F5.1_T5.2_[T11A]_[A12G]], with 11.5 nM.
Consider UCUCUUUUUGUAUUAUUAGCUCUCUU (ssRNA) [Id_ii_S1_P5E.2_K5.1_C5.2_[C-2T]_H5.1_A5.1_F5.1_T5.2_[T11G]_[A12C]], for which binding was characterised by a dissociation constant (Kd) of 4.26 nM.
As for UCUCUUUAUGUAUUAUUAACUCUCUU (ssRNA) [Id_ii_S1_P5E.2_K5.1_C5.2_[C-2T]_[T-1A]_H5.1_A5.1_F5.1_T5.2_[T11A]_[A12C]], the Kd was 13.9 nM.
The value for UCUCUUUUUGUAUUAUUAAGUCUCUU (ssRNA) [Id_ii_S1_P5E.2_K5.1_C5.2_[C-2T]_H5.1_A5.1_F5.1_T5.2_[T11A]_[A12G]] was 17 nM; that for UCUCUUCGUGUAUUAUUAAAUCUCUU (ssRNA) [Id_ii_S1_P5E.2_K5.1_C5.2_[T-1G]_H5.1_A5.1_F5.1_T5.2_[T11A]] was 15 nM; that for UCUCUUUCUGUAUUAUUAACUCUCUU (ssRNA) [Id_ii_S1_P5E.2_K5.1_C5.2_[C-2T]_[T-1C]_H5.1_A5.1_F5.1_T5.2_[T11A]_[A12C]] was 5.78 nM.
UCUCUUACUGUAUUAUUAAUUCUCUU (ssRNA) [Id_ii_S1_P5E.2_K5.1_C5.2_[C-2A]_[T-1C]_H5.1_A5.1_F5.1_T5.2_[T11A]_[A12T]] displayed a Kd of 12.5 nM.
Molecule UCUCUUACUGUAUUAUUAUUUCUCUU (ssRNA) [Id_ii_S1_P5E.2_K5.1_C5.2_[C-2A]_[T-1C]_H5.1_A5.1_F5.1_T5.2_[A12T]] had a Kd of 8.56 nM. This Kd and that of the molecule before are within 1.5-fold of each other.
The molecule UCUCUUUCUGUAUUAUUAUGUCUCUU (ssRNA) [Id_ii_S1_P5E.2_K5.1_C5.2_[C-2T]_[T-1C]_H5.1_A5.1_F5.1_T5.2_[A12G]] showed a Kd of 5.28 nM.
UCUCUUUAUGUAUUAUUAGCUCUCUU (ssRNA) [Id_ii_S1_P5E.2_K5.1_C5.2_[C-2T]_[T-1A]_H5.1_A5.1_F5.1_T5.2_[T11G]_[A12C]] displayed a Kd of 4.56 nM.
Turning to UCUCUUCGUGUAUUAUUAUCUCUCUU (ssRNA) [Id_ii_S1_P5E.2_K5.1_C5.2_[T-1G]_H5.1_A5.1_F5.1_T5.2_[A12C]], the Kd was determined as 7.38 nM. Compared with the last molecule, the Kd is about 1.6-fold higher.
Molecule UCUCUUUUUGUAUUAUUAAAUCUCUU (ssRNA) [Id_ii_S1_P5E.2_K5.1_C5.2_[C-2T]_H5.1_A5.1_F5.1_T5.2_[T11A]] yielded a Kd of 16.4 nM.
Molecule UCUCUUACUGUAUUAUUAUCUCUCUU (ssRNA) [Id_ii_S1_P5E.2_K5.1_C5.2_[C-2A]_[T-1C]_H5.1_A5.1_F5.1_T5.2_[A12C]] registered a Kd of 9.38 nM.
Take UCUCUUUGUAAAAUAUCUCUU (ssRNA) [Ic_S1_P4E.1_K4.1_C4.1_H4.1_A4.1_[T5A]_[T7A]_F4.1_T4.1]: binding was put at a Kd of 3.38 nM. Compared with the last molecule, the Kd is about 2.8-fold lower.
With UCUCUUAUUGUAUUAUUAAAUCUCUU (ssRNA) [Id_ii_S1_P5E.2_K5.1_C5.2_[C-2A]_H5.1_A5.1_F5.1_T5.2_[T11A]], the Kd worked out at 13.4 nM.
The value for UCUCUUUGUAAACUAUCUCUU (ssRNA) [Ic_S1_P4E.1_K4.1_C4.1_H4.1_A4.1_[T5A]_[T7C]_F4.1_T4.1] was 2.01 nM; that for UCUCUUAUUGUAUUAUUAUGUCUCUU (ssRNA) [Id_ii_S1_P5E.2_K5.1_C5.2_[C-2A]_H5.1_A5.1_F5.1_T5.2_[A12G]] was 10.1 nM.
UCUCUUAUUGUAUUAUUAACUCUCUU (ssRNA) [Id_ii_S1_P5E.2_K5.1_C5.2_[C-2A]_H5.1_A5.1_F5.1_T5.2_[T11A]_[A12C]]: the Kd stood at 11.1 nM. The Kd values of the last two molecules are within 1.5-fold of each other.
In turn, UCUCUUCGUGUAUUAUUAGUUCUCUU (ssRNA) [Id_ii_S1_P5E.2_K5.1_C5.2_[T-1G]_H5.1_A5.1_F5.1_T5.2_[T11G]_[A12T]] gave a Kd of 3.02 nM.
The value for UCUCUUUUUGUAUUAUUAAUUCUCUU (ssRNA) [Id_ii_S1_P5E.2_K5.1_C5.2_[C-2T]_H5.1_A5.1_F5.1_T5.2_[T11A]_[A12T]] was 8.7 nM; that for UCUCUUUCUGUAUUAUUAUUUCUCUU (ssRNA) [Id_ii_S1_P5E.2_K5.1_C5.2_[C-2T]_[T-1C]_H5.1_A5.1_F5.1_T5.2_[A12T]] was 5.27 nM.
The value for UCUCUUUUUGUAUUAUUAUCUCUCUU (ssRNA) [Id_ii_S1_P5E.2_K5.1_C5.2_[C-2T]_H5.1_A5.1_F5.1_T5.2_[A12C]] was 5.34 nM; that for UCUCUUUAUGUAUUAUUAAAUCUCUU (ssRNA) [Id_ii_S1_P5E.2_K5.1_C5.2_[C-2T]_[T-1A]_H5.1_A5.1_F5.1_T5.2_[T11A]] was 16.8 nM.
UCUCUUCGUGUAUUAUUAAGUCUCUU (ssRNA) [Id_ii_S1_P5E.2_K5.1_C5.2_[T-1G]_H5.1_A5.1_F5.1_T5.2_[T11A]_[A12G]] registered a Kd of 14.8 nM. The Kd values of the last two molecules are within 1.5-fold of each other.
Then UCUCUUUAUGUAUUAUUAUUUCUCUU (ssRNA) [Id_ii_S1_P5E.2_K5.1_C5.2_[C-2T]_[T-1A]_H5.1_A5.1_F5.1_T5.2_[A12T]], with 7.85 nM.
UCUCUUCGUGUAUUAUUAUUUCUCUU (ssRNA) [Id_ii_S1_P5E.2_K5.1_C5.2_[T-1G]_H5.1_A5.1_F5.1_T5.2_[A12T]]: the Kd came out at 7.48 nM. This Kd and that of the molecule before are within 1.5-fold of each other.
